Measured values reported in US20110135636A1 (SYMPHOGEN A S, published 2011).

Legend:
[1] = target: T1, recombinant human EGFR extracellular domain with 6xHis (human, UniProt P00533 25-645); test: SPR, EGFR ECD without competitor
T1 construct: In-house produced; also called 6xHis EGFR ECD; soluble human EGFR ECD; not shown: 6xHis tag
Description: (§1) SPR analysis was performed on a Biacore 3000 machine containing four flow cells. A CM5 Biacore chip was conjugated with 10,000 Resonance units (Ru) polyclonal anti-His antibody to flow cells 1-4 according to the manufacturer's instructions. […] Immediately after antigen injection the maximal binding of the Anti-EGFR mAb without competition was established in each flow cell during a reference run. Briefly 5 μl antibody at a concentration of 40 μg/ml was injected over all flow cells with captured EGFR followed by stripping of the antibody/antigen complex with a low pH acid wash (10 sec. contact time with 10 mM Glycine-HCl, pH2). After the determination of Anti-EGFR antibody maximal binding to each flow cell, a competition run was performed during the same Biacore cycle. Flow cells were first saturated with EGFR ECD antigen followed by injection of different reference antibodies or Anti-EGFR antibodies into separate flow cells using the same antigen saturating conditions as outlined above. This step was immediately followed by a second injection of Anti-EGFR antibody over the flow cell saturated with EGFR antigen and competition antibody to minimize the dissociation of either antigen or blocking antibody. Then the antibody/antigen complexes were stripped off with a low pH acid wash (10 sec. contact time with 10 mM Glycine-HCl, pH 2) and the whole cycle beginning with the reference run was repeated with a new Anti-EGFR antibody. The degree of inhibition of tested Anti-EGFR antibodies were determined by comparing the Ru max value of the individual Anti-EGFR antibody before and after competition by introduction of report points recorded two seconds before and after injection of each sample.

[2] = target: T1, recombinant human EGFR extracellular …; test: SPR, reference cycle of the run with mix N=6-1
Description: as §1

[3] = target: T2, full length human EGFR expressed on the cell surface (human, UniProt P00533 25-1210); test: FACS on CHO cells transfected with full length Human EGFR
T2 construct: whole, on cells; also called EGFR on A431-NS cells; EGFR on HN5 cells
Description: Bound antibody was detected with a PE labelled goat F(ab′)₂ anti-human IgG FC. Gating was performed on uniform cells (SCC/FCS properties) expressing EGFR. Binding is expressed as % maximal antibody binding at 1 nM concentration.
Briefly quantitative FACS analysis was performed on a BD FACS array Bioanalyzer System to determine the number of EGFR molecules expressed on the surface of CHO cells transfected with either Human or Cynomolgus full length EGFR. […] Antibodies were incubated with cells for 14 hours on a shaker, to promote full antigen saturation at all antibody concentrations tested, while FACS buffer was added 0.02% NaN₃ and temperature kept at 4° C. to prevent receptor internalization. After incubation, cells were pelleted at 1200 RPM for 5 min at 4° C. and resuspended in 200 ul FACS buffer. Next cells were stained with a secondary Goat F(ab′)₂ anti-Human IgG FcGamma PE diluted 1:500 and incubated for 30 min at 4° C. on a shaker. Finally cells were washed twice in FACS buffer and analyzed on a BD FACS array Bioanalyzer System with gating on EGFR expressing CHO cells displaying uniform forward/side scatter properties.

[4] = target: T2, full length human EGFR expressed on the …; test: cell ELISA, IgG titrated on unfixed A431-NS cells; given as ED50
Description: (§2) Cell ELISA: The ELISA was performed essentially as described in example 15 with modifications. Cells were left unfixed to allow conformational EGFR flexibility after antibody additions. Briefly, 10,000 A431-NS cells were grown in 96 well ELISA plates containing DMEM with added 0.5% FCS and 1% P/S at 37° C., 5% CO₂ overnight. […] 25 μl DMEM containing 1% BSA was added to wells used for testing of IgG antibodies without added Fab fragments. […] Next, wells were washed four times with PBS and 50 μl of a secondary monoclonal Mouse-anti-Human (Fc specific) HRP conjugate diluted 1:5000 in DMEM containing 1% BSA was added and incubated on ice for 30 min. Finally wells were washed four times with PBS and plates developed by adding 50 μl/well TMB substrate and read at 620 nm every 5-15-30 min. After incubation with substrate the reaction was stopped by addition of 1 M H₂SO₄ and absorbance read at 450 nm. The functional affinity expressed as ED50 values were calculated by subtraction of the average background binding with secondary reagent only, followed by normalization of the binding curves by plotting % maximal binding relative to each antibody tested.
(§3) Investigations of antibody induced binding enhancements were determined by concurrent ELISA binding studies, employing same secondary antibody reagent and incubation times.

[5] = target: T2, full length human EGFR expressed on the …; test: cell ELISA, IgG titrated on paraformaldehyde-fixed A431-NS cells; given as ED50
Description: Cell ELISA: The relative binding affinities defined as the molar concentration giving the half maximal OD (ED50) were determined by antibody titrations on A431-NS cells. Briefly, 10,000 A431-NS cells were grown in 96 well ELISA plates containing DMEM with added 0.5% FCS and 1% P/S at 37° C., 5% CO₂ overnight. […] Then 50 μl of a secondary Goat-anti-Human (Fab specific) HRP conjugate diluted 1:5000 in DMEM containing 1% BSA was added and incubated on ice for 30 min. Finally wells were washed four times with PBS and plates developed by adding 50 μl/well TMB Plus substrate and read at 620 nm every 5-15-30 min. After incubation with substrate the reaction was stopped by addition of 1 M H₂SO₄ and absorbance read at 450 nm. The functional affinity expressed as ED50 values were calculated by subtraction of the average background binding with secondary reagent only, followed by normalization of the binding curves by plotting % maximal binding relative to each antibody tested.

[6] = target: T2, full length human EGFR expressed on the …; test: cell ELISA, IgG titrated on unfixed A431-NS cells after saturation with Fab 992; given as ED50
Description: as §2, §3

Row | Rumax reference cycle [1] [Ru] | Rumax reference cycle [2] [Ru] | EC50 (read off the curve) [3] [nM] | EC50 [4] [nM] | EC50 [5] [nM] | EC50 [6] [nM] | Binder
1 | 157 | 139 |  |  |  |  | antibody 1261 (antibody, human IgG1, kappa, V domains shown, Chimeric IgG1 kappa) VH: EVQLVESGGGLVKPGGSLKLSCAVSGFTFSSYVMSWVRQTPEKRLEWVATITSGGRNIYYLDSVKGRFTISRDNAKNTLYLQMSSLRSEDTAMYYCARHEDYRYDGYYAMDYWGQGTSVTVSS VL: QIVLTQSPAIMSASPGEKVTITCSASSSVSYMHWFQQKPGTSPKLWIYSTSNLASGVPARFSGSGSGTSYSLTISRMEAEDAATYYCQQRSSYPYTFGGGTKLELKR
2 |  |  | ~0.01 |  |  |  | antibody 1320 (antibody, human IgG1, kappa, V domains shown, Chimeric IgG1 kappa) VH: QVQLQQPGAELVKPGASMKLSCKASGYTFTNYWMHWVKQRPGQGLEWIGEINPSNGRTNYNEKFKSKATLTVDKSSSTAYMQLSSLTSEDSGVYYCAKGGNYYDYDWDYWGQGTTLTVSS VL: DIQMTQTTSSLSASLGDRVTISCSASQDISNYLNWYQQKPDGTVKLLIYHTSTLHSGVPSRFSGSGSGTDYSLTISNLEPEDIATYYCQQYSKLPWTFGGGTKLEIKR
3 | 75 | 107 |  |  |  |  | antibody 1347 (antibody, human IgG1, kappa, V domains shown, Chimeric IgG1 kappa) VH: QVQLKESGPGLVAPSQSLSITCTVSGFSLTGHGVNWVRQPPGKGLEWLGMIWGDGSTDYNSTLKSRLSISKDNSKSQVFLKMNSLQTDDTARYYCARGYGYLYYFDYWGQGTTLTVSS VL: ENVLTQSPAIMSASPGEKVTMTCRASSSVSSSYLHWYQQKSGASPKLWIYSTSNLASGVPARFSGSGSGTSYSLTVNSVETEDAATYYCHQYSGFPFTFGSGTKLELKR
4 |  | 74 |  | 2.2 | 1.5 | 1.6 | antibody 1030 (antibody, human IgG1, kappa, V domains shown, Chimeric IgG1 kappa) VH: EVQLVESGGGLVKPGGSLKLSCAASGFTFSSYALSWVRQTPERRLEWVASISGVGSTYFPDSVKGRFTMSRDNARNILYLQMSSLRSEDTAMYYCARGSDGYFYAMDYWGQGTSVTVSS VL: DIVLTQSPASLAVSLGQRATISCRASKSVSTSGYSFMHWYQLKPGQPPKLLIYLASNLESGVPARFSGSGSGTDFTLNIHPVEEEDAATYYCQHSREFPLTFGGGTKLEIKR
5 | 81 | 71 | ~0.01 | 0.6 | 0.3 |  | antibody 992 (antibody, human IgG1, kappa, V domains shown, Chimeric mouse/human IgG1 kappa; the VL entry includes the human kappa constant region) VH: EVQLQQPGSELVRPGASVKLSCKASGYTFTSYWMHWVKQRPGQGLEWIGNIYPGSRSTNYDEKFKSKATLTVDTSSSTAYMQLSSLTSEDSAVYYCTRNGDYYVSSGDAMDYWGQGTSVTVSS VL: DIQMTQTTSSLSASLGDRVTISCRTSQDIGNYLNWYQQKPDGTVKLLIYYTSRLHSGVPSRFSGSGSGTDFSLTINNVEQEDVATYFCQHYNTVPPTFGGGTKLEIKR
6 | 100 | 122 | ~0.01 | 1 | 0.3 | 0.9 | antibody 1024 (antibody, human IgG1, kappa, V domains shown, Chimeric IgG1 kappa) VH: QVQLQQPGAELVEPGGSVKLSCKASGYTFTSHWMHWVKQRPGQGLEWIGEINPSSGRNNYNEKFKSKATLTVDKSSSTAYMQFSSLTSEDSAVYYCVRYYGYDEAMDYWGQGTSVTVSS VL: DIVMTQAAFSNPVTLGTSASISCRSSKSLLHSNGITYLYWYLQKPGQSPQLLIYQMSNLASGVPDRFSSSGSGTDFTLRISRVEAEDVGVYYCAQNLELPYTFGGGTKLEIKR
